According to US20200369769A1:

Target: PD-L1 (UniProt Q9NZQ7)
Assay: cell-based or functional assay

PD-L1, sequence (Q9NZQ7 19-290 limits assumed): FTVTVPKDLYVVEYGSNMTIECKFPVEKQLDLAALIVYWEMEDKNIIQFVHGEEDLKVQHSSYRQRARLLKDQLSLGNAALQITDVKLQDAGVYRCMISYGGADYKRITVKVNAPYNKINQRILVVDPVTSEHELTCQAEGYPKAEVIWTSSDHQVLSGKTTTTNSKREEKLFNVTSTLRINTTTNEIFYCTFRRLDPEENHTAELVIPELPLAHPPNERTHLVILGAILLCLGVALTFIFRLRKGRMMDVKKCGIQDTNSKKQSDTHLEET

Substance: anti-PD-L1 antibody (chimera of the variable domain of atezolizumab with human IgG2 domains)
- IL2 concentration (% over isotype control), mixed lymphocyte reaction (% over isotype control): 247
